For assay [1], the target named is T1, human ST2 (hST2, Interleukin-1 receptor-like 1 isoform A) on cells (human, UniProt Q01638 19-556).
T1 sequence: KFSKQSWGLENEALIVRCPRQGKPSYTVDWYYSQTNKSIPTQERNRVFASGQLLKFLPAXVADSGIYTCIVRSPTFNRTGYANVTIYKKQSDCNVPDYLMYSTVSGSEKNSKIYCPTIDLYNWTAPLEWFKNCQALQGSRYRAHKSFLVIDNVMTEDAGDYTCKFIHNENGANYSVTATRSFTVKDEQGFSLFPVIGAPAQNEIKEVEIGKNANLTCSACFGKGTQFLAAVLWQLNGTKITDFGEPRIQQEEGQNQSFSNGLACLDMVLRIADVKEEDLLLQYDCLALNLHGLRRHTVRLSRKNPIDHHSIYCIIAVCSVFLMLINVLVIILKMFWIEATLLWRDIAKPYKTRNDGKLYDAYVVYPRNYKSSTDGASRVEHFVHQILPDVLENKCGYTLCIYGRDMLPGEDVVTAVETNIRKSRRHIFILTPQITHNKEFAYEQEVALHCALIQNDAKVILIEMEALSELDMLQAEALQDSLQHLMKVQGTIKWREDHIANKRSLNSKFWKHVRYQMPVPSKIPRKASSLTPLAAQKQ
In words: cell-based or functional assay.

Assay [2] concerns the target T2, recombinant protein containing hST2 extracellular domain with mouse antibody heavy chain Fc tag (hST2-ECD-mFc) (human).
T2 construct: Used for SPR and for ELISA of chimeric and humanized antibodies; also called human ST2 antigen
T2 chain: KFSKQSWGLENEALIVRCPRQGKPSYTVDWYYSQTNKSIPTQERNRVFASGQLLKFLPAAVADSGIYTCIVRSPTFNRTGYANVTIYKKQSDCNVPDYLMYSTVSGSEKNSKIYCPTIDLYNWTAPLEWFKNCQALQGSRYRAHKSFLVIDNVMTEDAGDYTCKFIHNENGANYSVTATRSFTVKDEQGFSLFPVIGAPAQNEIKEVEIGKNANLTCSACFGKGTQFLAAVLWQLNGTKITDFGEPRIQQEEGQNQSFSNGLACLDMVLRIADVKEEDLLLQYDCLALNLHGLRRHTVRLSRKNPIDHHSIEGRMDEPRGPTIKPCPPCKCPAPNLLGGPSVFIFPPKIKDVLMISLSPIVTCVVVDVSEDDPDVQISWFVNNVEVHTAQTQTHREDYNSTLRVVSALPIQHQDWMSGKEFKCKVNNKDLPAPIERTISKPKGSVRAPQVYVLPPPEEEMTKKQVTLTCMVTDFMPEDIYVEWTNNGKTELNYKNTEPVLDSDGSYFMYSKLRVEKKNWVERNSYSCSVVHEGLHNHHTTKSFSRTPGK
In words: SPR (Biacore T200), hST2-ECD-mFc captured by anti-mouse IgG on CM5, antibody as analyte, 1:1 model. The procedure:
The reaction signals were detected in real time using a Biacore instrument (Cytiva, BiacoreT200), and then an association-dissociation curve was obtained. After the completion of dissociation in each cycle, the biochip was regenerated with a regeneration solution for the next capture; the procedure was repeated until the affinity of the different antibodies for ST2 was determined. The acquired data were finally analyzed using the GE BIAevaluation software with a 1:1 (Langmuir) binding model to determine the association rate constants ka (kon) and the dissociation rate constants kd (koff), and the dissociation constants KD were given by KD = kd/ka. The determined affinity of the anti-ST2 antibody for human ST2 antigen (hST2-ECD-mFc), cynomolgus monkey ST2 antigen (Cyno-ST2-his, Sino biological, 90915-C08H) and the determined affinity of the anti-ST2 chimeric antibodies for ST2 were shown in Table 5.
The humanized antibodies hz31C81-1.1 (the amino acid sequence of the heavy chain set forth in SEQ ID NO: 75 and the amino acid sequence of the light chain set forth in SEQ ID NO: 81) and hz31C8-1.2 (the amino acid sequence of the heavy chain set forth in SEQ ID NO: 77 and the amino acid sequence of the light chain set forth in SEQ ID NO: 81) were subjected to affinity, binding, blocking and cell function analyses using the methods described in Example 4, Example 5, Example 6, Example 7, Example 8, Example 9 and Example 10. In the present disclosure, “hz” and “xi” denote humanized antibodies and chimeric antibodies, respectively; for example, “hz31C81-1.1” and “hz31C81-1.2” represent humanized 31C81-1.1 and 31C81-1.2 antibodies, and “xi31C8” represents a chimeric 31C8 antibody.
A general note: In SPR one partner is held on a chip, and binding of the other changes the refractive index at the surface.

B1: Chimeric 7D1 (antibody, human IgG2, kappa, V domains shown)
VH: QVQLQQSGAELVRPGASVTLSCKASGYTFTDYEMHWVKQTPVHGLDWIGTIDPETGDTAYNQKFKGRATLTADKSSSTAYMELSSLTSEDSAVYYCTRYSYTNSPYGMDYWGQGTSVTVSS
VL: DVVMTQTPKFLLVSAGDRVTITCKASQSVSNDVAWYQQKPGQSPKLLIYYASNRYTGVPDRFTGSGYGTDFTFTINTVQAEDLAVYFCQQDYSSPYTFGGGTKLEIKR
notes: also called xi7D1
As to B1, in assay [1], the “IC50, blocking of the IL33/ST2-induced IL5 secretion on CD4+ T cells (hIL33 plus IL2 co-stimulation)” value (shortened to “IC50, blocking”) came to 120 pM.

B2: GSK3772847 (antibody STLM208 in CN104411333, prepared in-house) (antibody, human IgG2, kappa, V domains shown)
VH: EVQLLESGGGLVQPGGSLRLSCAASGFTFSIYDMIWVRQAPGKGLEWVSSIRGEGGGTYYADSVKGRFTISRDNSKNTLYLQMNSLRAEDTAVYYCARDPWSTEGSFFVLDYWGQGTLVTVSS
VL: EIVLTQSPATLSLSPGERATLSCRASQSVDDDLAWYQQKPGQAPRLLIYDASNRATGIPARFSGSGSGTDFTLTISSLEPEDFAVYYCQQYITAPLTFGQGTKVEIKR
notes: Control anti-ST2 antibody
As a reminder, the Kd is the equilibrium constant for the complex coming apart. On to B2, for which, in assay [2], the Kd is 95.8 pM.

B3: Chimeric 17E2 (antibody, human IgG2, kappa, V domains shown)
VH: QVQLQQSGAELVRPGASVTLSCKASGYTFTDYEMHWVKQTPVLGLEWIGAIDPETGDTAYNQKFKGKATLTADKSSSTAYMELSSLASEDSAVYYCIRVDSNYDYFDYWGQDTTLTVSS
VL: DIVLTQSPPILSASPGEKVTMTCRASSSVSYMHWYQQKPGSSPKPWIYDTSNLASGVPARFSGSGSGTSYSLTISRVEAEDAATYYCQQWSSNPLTFGAGTKLELKR
notes: also called xi17E2
In the case of B3, the “IC50, blocking” value in assay [1] is 80 pM.

B4: Chimeric 31C8 (antibody, human IgG2, kappa, V domains shown)
VH: QVQLQQSGPELVRPGASVTLSCKASGYIFIDSEMHWVKQTPVHGLEWIGAIDPETGDTVYNQKFKGKATLTADKSSSTASMELSSLTSEDSAVYYCTGSTTDYYFAYWGQGTTLTVSS
VL: DIVMTQAAFSNPVTLGTSASISCRSSKSLLHSNGIIYLYWYLQKPGQSPQLLIYQMSNLASGVPDRFSSSGSGTDFTLRISRVEAEDVGVYYCAQNLELPFTFGSGTKLEIKR
notes: also called xi31C8
Consider B4, for which, in assay [1], the “IC50, blocking” value was determined as 90 pM. In assay [2], the Kd is 129 pM.

B5: RG6149 (antibody Ab2 in CN104334582, prepared in-house) (antibody, human IgG2, kappa, V domains shown)
VH: EVQLVQSGAEVKKPGESLKISCKGSGYSFTNYWIGWVRQMPGKGLEWMGIIYPGNSDTRFSPSFQGQVTISADKSITTAYLQWSSLKASDTAMYYCARHGTSSDYYGLDVWGQGTTVTVSS
VL: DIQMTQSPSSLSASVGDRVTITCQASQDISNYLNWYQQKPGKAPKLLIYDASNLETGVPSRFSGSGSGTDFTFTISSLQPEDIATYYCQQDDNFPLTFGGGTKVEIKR
notes: Control anti-ST2 antibody
Consider B5, for which, in assay [1], the “IC50, blocking” value worked out at 320 pM. Besides, in assay [2], the Kd turned out to be 128 pM.

B6: Humanized 31C8-1.1 (antibody, human IgG2, kappa, V domains shown)
VH: EVQLVQSGAEVKKPGATVKISCKASGYIFIDSEMHWVQQAPGKGLEWMGAIDPETGDTVYAEKFQGRVTITADKSSSTAYMELSSLRSEDTAVYYCTGSTTDYYFAYWGQGTLVTVSS
VL: DIQMTQSPSSLSASVGDRVTITCRSSKSLLHSNGIIYLYWYQQKPGKAPKLLIYQLSNLASGVPSRFSSSGSGTDFTLTISSLQPEDFATYYCAQNLELPFTFGQGTKVEIKR
notes: also called hz31C8-1.1; hz31C81-1.1
As for B6, the Kd in assay [2] was determined as 83.6 pM.

B7: Humanized 31C8-1.2 (antibody, human IgG2, kappa, V domains shown)
VH: QVQLVQSGAKVKKPGATVKISCKASGYIFIDSEMHWVQQAPGKGLEWMGAIDPETGDTVYAKKFKGRVTITADKSSSTAYMELSSLRSEDTAVYYCTGSTTDYYFAYWGQGTLVTVSS
VL: DIQMTQSPSSLSASVGDRVTITCRSSKSLLHSNGIIYLYWYQQKPGKAPKLLIYQLSNLASGVPSRFSSSGSGTDFTLTISSLQPEDFATYYCAQNLELPFTFGQGTKVEIKR
notes: also called hz31C8-1.2; hz31C81-1.2
For B7, the dissociation constant (Kd) in assay [2] is 145 pM.

The values are drawn from patent US20230272086A1 (CHIA TAI TIANQING PHARMACEUTICAL GROUP, published 2023).
